# B1: PA13R3-P1C4: phage-derived chimeric anti-CB1 IgG; HC variable SEQ ID NO: 2, LC variable SEQ ID NO: 6 (antibody, V domains shown)
# VH: EVQLQQSGAELVRPGVSVKISCKASGYEFSYYWMNWVKQRPGQGLEWIGQIYPGDGETKYNGKFKGKATLTADKSSNTAYMQLSSLTSEDSAVYFCARSHGNYLPYWGQGTLVTVSA
# VL: DIVLTQSPAIMSASLGERVTMTCTASSSVSSSYLHWYQQKPGSSPKLWIYSTSNLASGVPARFSGSGSGTSYSLTISSMEAEDAATYYCHQYHRSPPTFGAGTKLELK
# modifications: PA13R3-P1C4 Heavy chain variable region; PA13R3-P1C4 Light chain variable region
# B2: PA13R3-P1C4 Fab: Fab fragment of chimeric PA13R3-P1C4 (antibody, V domains shown)
# VH: B1 VH
# VL: B1 VL
# B3: 36E12B6C2: hybridoma-derived anti-CB1 mAb; HC variable SEQ ID NO: 18, LC variable SEQ ID NO: 22 (antibody, listed as Mus sp., V domains shown)
# VH: QVQLQQSGAELVRPGSSVKISCKASGYEFSYYWMNWVKQRPGQGLQWIGQIYPGDGDTNYNGKFKGKATLTADKSSSTAYMHLTSLTSEDSAVYFCARSGGNPFAFWGQGTLVTVSA
# VL: DIQMTQTSSSLSASLGDRVTFSCRASQDISNYLNWYQQKPDGTVKLLIYYTSRLHSGVTSRFRGSGSGTDYSLTISNLEQEDVATYFCQQGHTLPWSFGGGTKLEIK
# Columns and labels:
# [1] = target: T1, Mouse CB1 (TRex CHO cells) (Mus musculus, UniProt P47746); assay: Flow cytometry cross-reactivity to mouse CB1; type: binding
# T1 construct: expressed in transfected cells
# Description: (§1) To further assess TRex CHO parental cells, TRex CHO A56 overexpressed CB1, Native human CB1 TRex CHO A156, 5HT2B, Mouse CB1 and human CB2 were used to examine the specificity of IgG binding. 100 μl of 1×10^6 cells/ml of cells were incubated with primary antibody IgGs in 3-fold serial dilutions starting from 1 μM to 0.5 nM for 30 minutes on ice. After being washed with 200 μl of FACS buffer twice, cells were incubated with secondary antibody for 30 minutes on ice. Cells were washed with 200 μl of FACS buffer twice and transferred to BD Falcon 5 ml tube and analyzed by FACS.
# (§2) Santa Cruz anti-CB1 rabbit polyclonal antibody and secondary antibody FITC conjugated anti-rabbit were used to detect the expression of mouse CB1. R&D mouse monoclonal anti-CB2 and human IgG P2C2 were used to confirm the expression of CB2 and 5HT2B respectively. Both anti-mouse and anti-human secondary antibodies were PE-conjugated.
# (§3) The binding affinity, cross-reactivity and specificity of humanized P1C4 antibodies were determined by flow cytometry with TRex CHO parental cells, TRex CHO A56 overexpressed CB1 cells (T210A/fusion partner), native human CB1 TRex CHO A156 cells, Trex parental (no CB1) cells, mouse CB1 cells, and human CB2 stable cells. […] After being washed with 200 μl of FACS buffer twice, cells were incubated with PE conjugated anti-human secondary antibody (Southern Biotech) for 30 minutes on ice. Cells were washed with 200 μl of FACS buffer twice and transferred to BD Falcon 5 ml tube and analyzed by flow cytometry (BD FACScalibur).
# Binding selectivity and cross-reactivity of PA13R3-P1C4 and its humanized variants was also characterized by flow cytometry using TRex CHO cells stably transfected with the GPCRs of interest. Specifically, binding selectivity for CB1 over CB2 was determined. Cross reactivity to mouse CB1 was also determined. For detecting expression of mouse CB1, 100 μL of 1×10^6 cells/mL of cells were incubated with anti-CB1 rabbit polyclonal antibody (Santa Cruz) at 1 μg/100 μL on ice for 30 min. Mouse monoclonal anti-CB2 antibody from R&D Systems was used to confirm the expression of CB2. 100 μL of 1×10^6 cells/mL of cells were incubated with anti-CB2 antibody at 0.5 μg/100 μL on ice for 30 minutes. After incubation, cells were then centrifuged at 4° C. at 1600 rpm for 3 minutes; supernatant was aspirated and cells were washed with 200 μL FACS buffer. The procedure was repeated twice. […] Cells were washed with 200 μL FACS buffer twice and analyzed by flow cytometry (Guava). Binding of purified IgG full concentration curves ranging from 1 μM to 1.3 nM was determined. […]
# [2] = target: T2, human CB2 (TRex CHO cells) (Homo sapiens, UniProt P34972); assay: Flow cytometry selectivity versus human CB2; type: binding
# T2 construct: expressed in transfected cells
# Description: as §1, §2
# For selected binders, full binding curves were generated on CB1 receptor by testing a range of concentrations. Three-fold serial dilutions from 1 μM to […] were prepared. Selectivity was determined by measuring binding to cells expressing 5HT2B or CB2, relative to binding to A156 (native human CB1 receptor expressing) or A56 (overexpressed—CB1 receptor with the T210A modification and ICL3 replacement with fusion partner) by flow cytometry. As shown in FIG. 2C and FIG. 2D, the expression of CB2 and 5HT2B was confirmed using mouse monoclonal anti-CB2 and P2C2 human IgG to confirm CB2 and 5HT2B expression, respectively. PE-conjugated anti-mouse (for detection of anti-CB2) and PE conjugated anti-human antibodies were used to detect CB2 and 5HT2B, respectively.
# as §3
# Binding selectivity and cross-reactivity of PA13R3-P1C4 and its humanized variants was also characterized by flow cytometry using TRex CHO cells stably transfected with the GPCRs of interest. Specifically, binding selectivity for CB1 over CB2 was determined. Cross reactivity to mouse CB1 was also determined. […] Cells were washed with 200 μL FACS buffer twice and analyzed by flow cytometry (Guava). Binding of purified IgG full concentration curves ranging from 1 μM to 1.3 nM was determined. […]
# [3] = target: T3, TRex CHO A156 Native human CB1 cells (Homo sapiens, UniProt P21554); assay: Competition assay by FACS; type: binding; settings: excess competitor; staining IgG at EC80 and EC50
# T3 construct: pcDNA4/TO native full length human CB1 receptor construct was transfected into tetracycline inducible system Trex-CHO cells; expressed in transfected cells
# Description: TRex CHO A156 Native human CB1 cells were used to test whether 36E12B6C2 and P1C4 bind to similar epitopes. Concentrations at EC80 and EC50 of P1C4 and 36E12B6C2 were used for staining. Excess of PA13R3-P1C4 IgG, Fab and 36E12B6C2 were used for competition. 100 μl of 1×10^6 cells/ml of A156 cells were incubated with competitor IgGs for 30 minutes on ice and then staining IgGs were added into the mixture with 30 minutes incubation on ice. After being washed with 200 μl of FACS buffer twice, cells were incubated with secondary antibody for 30 minutes on ice. PE conjugated anti-human and anti-mouse was diluted in 1:200 folds. Cells were washed with 200 μl of FACS buffer twice and transferred to BD Falcon 5 ml tube and analyzed by FACS.
# [4] = target: T4, Native human CB1 TRex CHO A156 (Homo sapiens, UniProt P21554); assay: Flow cytometry (FACS) binding to native human CB1 cells
# T4 construct: pcDNA4/TO native full length human CB1 receptor construct was transfected into tetracycline inducible system Trex-CHO cells; expressed in transfected cells
# Description: TRex CHO parental cells, TRex CHO A56 over-expressed CB1 (CB1 T210A/fusion partner), and Native human CB1 TRex CHO A156 were harvested from flasks. 100 μl of 1×10^6 cells/ml of cells were incubated with primary antibody IgGs. Secondary Antibody PE conjugated anti-human and anti-mouse was diluted in 1:200 folds. Anti-Human Fab FITC was diluted in 1:32 folds. Cells were washed with 200 μl of FACS buffer twice and transferred to BD 5 ml Falcon tube and analyzed by flow cytometry. Binding of purified IgG was initially tested at concentrations of 30 nM and 300 nM.
# as §1
# For selected binders, full binding curves were generated on CB1 receptor by testing a range of concentrations. Three-fold serial dilutions from 1 μM to […] were prepared. Selectivity was determined by measuring binding to cells expressing 5HT2B or CB2, relative to binding to A156 (native human CB1 receptor expressing) or A56 (overexpressed—CB1 receptor with the T210A modification and ICL3 replacement with fusion partner) by flow cytometry. […]
# The binding affinity, cross-reactivity and specificity of humanized P1C4 antibodies were determined by flow cytometry with TRex CHO parental cells, TRex CHO A56 overexpressed CB1 cells (T210A/fusion partner), native human CB1 TRex CHO A156 cells, Trex parental (no CB1) cells, mouse CB1 cells, and human CB2 stable cells. […] Cells were washed with 200 μl of FACS buffer twice and transferred to BD Falcon 5 ml tube and analyzed by flow cytometry (BD FACScalibur).
# T4 sequence (P21554 whole entry): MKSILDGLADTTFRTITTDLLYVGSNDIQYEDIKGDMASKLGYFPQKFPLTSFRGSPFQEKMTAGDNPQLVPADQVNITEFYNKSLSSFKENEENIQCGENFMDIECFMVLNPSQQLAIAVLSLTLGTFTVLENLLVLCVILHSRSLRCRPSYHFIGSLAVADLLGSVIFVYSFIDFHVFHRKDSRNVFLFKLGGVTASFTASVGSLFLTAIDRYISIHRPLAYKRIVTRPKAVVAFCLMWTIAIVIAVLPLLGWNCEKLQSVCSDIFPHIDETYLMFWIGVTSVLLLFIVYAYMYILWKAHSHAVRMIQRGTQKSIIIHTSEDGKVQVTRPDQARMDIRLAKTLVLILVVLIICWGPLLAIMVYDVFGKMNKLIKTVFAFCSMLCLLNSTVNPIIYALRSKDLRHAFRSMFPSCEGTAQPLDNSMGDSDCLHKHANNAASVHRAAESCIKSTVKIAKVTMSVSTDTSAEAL
# T3 sequence (P21554 whole entry): as above
# T1 sequence (P47746 whole entry): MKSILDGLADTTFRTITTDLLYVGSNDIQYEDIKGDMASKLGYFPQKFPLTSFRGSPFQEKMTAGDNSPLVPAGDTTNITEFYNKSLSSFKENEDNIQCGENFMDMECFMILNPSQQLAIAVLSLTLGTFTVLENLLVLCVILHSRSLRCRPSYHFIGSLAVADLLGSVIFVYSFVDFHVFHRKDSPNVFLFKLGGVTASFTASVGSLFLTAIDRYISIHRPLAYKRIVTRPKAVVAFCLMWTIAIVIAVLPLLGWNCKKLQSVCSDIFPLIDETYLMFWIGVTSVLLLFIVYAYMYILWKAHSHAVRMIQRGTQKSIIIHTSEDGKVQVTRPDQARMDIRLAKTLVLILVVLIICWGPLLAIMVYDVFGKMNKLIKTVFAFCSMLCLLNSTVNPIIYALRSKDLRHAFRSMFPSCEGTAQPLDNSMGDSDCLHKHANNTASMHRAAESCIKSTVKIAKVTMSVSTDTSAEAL
# T2 sequence (P34972 whole entry): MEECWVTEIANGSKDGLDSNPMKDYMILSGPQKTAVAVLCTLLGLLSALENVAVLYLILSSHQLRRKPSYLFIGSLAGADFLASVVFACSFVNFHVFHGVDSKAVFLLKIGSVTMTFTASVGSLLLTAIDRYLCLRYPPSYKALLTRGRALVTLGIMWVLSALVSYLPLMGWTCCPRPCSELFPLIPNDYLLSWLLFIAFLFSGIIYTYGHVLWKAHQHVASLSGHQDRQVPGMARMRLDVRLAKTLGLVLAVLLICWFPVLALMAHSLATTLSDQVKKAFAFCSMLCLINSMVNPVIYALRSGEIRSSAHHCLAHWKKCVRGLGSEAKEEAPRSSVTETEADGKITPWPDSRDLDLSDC
Molecule,cross-activity with Mouse CB1 [1],Kd TRexCHO Mouse CB1 ([1]; Table 10),cross-activity with human CB2 [2],Kd TRexCHO Human CB2 ([2]; Table 10),competition for CB1 binding [3],binding to A156 (in words) [4]
B1,do not have cross-activity,No binding,do not have cross-activity,No binding,competed with 36E12B6C2,bind to both A56 and A156
B2,do not have cross-activity,–,do not have cross-activity,–,competed with 36E12B6C2,bind to both A56 and A156
B3,do not have cross-activity,–,do not have cross-activity,–,could also compete with PA13R3-P1C4,bind to both A56 and A156

# From patent US11421026B2, “Antibodies that bind human cannabinoid 1 (CB1) receptor” (BIRD ROCK BIO, Inc., priority 2015, dated 2022)
